This note sets out measurements from publication PMC8093518, “PprA Protein Inhibits DNA Strand Exchange and ATP Hydrolysis of Deinococcus RecA and Regulates the Recombination in Gamma-Irradiated Cells” (Frontiers in Cell and Developmental Biology, 2021).

Data set [1] addresses T1, PprA (Deinococcus radiodurans R1 (ATCC 13939), UniProt O32504 1-300).
T1 sequence: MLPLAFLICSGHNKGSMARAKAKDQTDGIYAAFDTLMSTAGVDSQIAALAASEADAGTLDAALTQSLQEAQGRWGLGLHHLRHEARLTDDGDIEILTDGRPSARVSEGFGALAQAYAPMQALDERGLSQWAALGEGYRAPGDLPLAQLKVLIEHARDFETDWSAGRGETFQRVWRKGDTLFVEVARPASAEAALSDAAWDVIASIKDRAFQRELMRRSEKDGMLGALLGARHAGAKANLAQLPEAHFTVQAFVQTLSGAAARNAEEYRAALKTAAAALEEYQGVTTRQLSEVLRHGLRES
As to the kind of experiment: EMSA; PprA 2 ug; EMSA: 0.2 pmol 32P probe in 10 ul, 10 mM Tris-HCl pH 7.5, 50 mM NaCl, 1 mM DTT, 10 min, 37 C; 12.5% native PAGE. To be noted: protein: recombinant; tags: His-tag removed with Factor Xa (pET28a); label: 32P (polynucleotide kinase, 5' end).

In a further data set the target is T2, DrRecA (Deinococcus radiodurans R1 (ATCC 13939), UniProt P42443 1-363).
T2 sequence: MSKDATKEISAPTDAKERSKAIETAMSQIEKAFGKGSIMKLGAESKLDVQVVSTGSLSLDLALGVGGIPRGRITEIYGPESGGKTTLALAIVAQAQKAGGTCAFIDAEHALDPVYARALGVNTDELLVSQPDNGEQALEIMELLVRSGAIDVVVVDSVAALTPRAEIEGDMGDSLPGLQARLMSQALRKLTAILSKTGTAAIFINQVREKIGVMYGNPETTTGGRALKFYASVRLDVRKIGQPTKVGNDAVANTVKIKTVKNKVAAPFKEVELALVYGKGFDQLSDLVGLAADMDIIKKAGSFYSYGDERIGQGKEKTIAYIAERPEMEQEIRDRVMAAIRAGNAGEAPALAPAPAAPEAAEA
As to the kind of experiment: EMSA; no PprA; DrRecA 0.5-2 ug; EMSA: 0.2 pmol 32P probe in 10 ul, 10 mM Tris-HCl pH 7.5, 50 mM NaCl, 1 mM DTT, 10 min, 37 C; 12.5% native PAGE. To be noted: protein: recombinant, tags: His-tag removed with Factor Xa (pET28a), label: 32P (polynucleotide kinase, 5' end).

Data set [2] deals with T1, PprA. As to the kind of experiment: EMSA; PprA 2 ug; band distinct from DrRecA-DNA; EMSA: 0.2 pmol 32P probe in 10 ul, 10 mM Tris-HCl pH 7.5, 50 mM NaCl, 1 mM DTT, 10 min, 37 C; 12.5% native PAGE. To be noted: protein: recombinant; tags: His-tag removed with Factor Xa (pET28a); label: 32P (polynucleotide kinase, 5' end); blunt.
The target of data set [3] is T3, Recombinant DrRecA, purified (D. radiodurans, UniProt P42443 1-363).
T3 construct: RecA of Deinococcus radiodurans, from plasmid pETrecA constructed earlier (Rajpurohit et al., 2016); His tag removed with Factor-Xa; also called pETrecA; source: E. coli BL21(DE3) pLysS, purified (Ni-chelating Sepharose, Q-sepharose, Heparin, Superdex-200)
T3 sequence (looked up): T2 sequence
As to the kind of experiment: cross-linking; both proteins (approx. 5 μg each) mixed in HEPES buffer pH 7.6 for 10 min, 0.5% glutaraldehyde for 10 min, SDS-PAGE; with or without 1 kb dsDNA, DNase treatment. To be noted: both partners purified.

Substitutions are numbered along the chain they refer to. Names and notes keep the numbering of the source.

With TAATACAAAATAAGTAAATGAATAAACAGAGAAAATAAAG (ssDNA) [Oligo40-F 40-mer ssDNA], the results for the binding result with PprA [1] and with DrRecA were “no binding” and “binds”, respectively.

B1: Oligo40-F/Oligo40-R 40-mer dsDNA (dsDNA)
DNA 1: TAATACAAAATAAGTAAATGAATAAACAGAGAAAATAAAG
DNA 2: CTTTATTTTCTCTGTTTATTCATTTACTTATTTTGTATTA
With B1, the binding result in the data set with DrRecA (blunt) and with PprA [2] was “binds” in each case.

B2: Recombinant PprA, wild type, purified (natural protein, D. radiodurans, UniProt O32504 1-300, looked up)
chain: T1 sequence
notes: PprA of Deinococcus radiodurans, from plasmid pETpprA constructed earlier (Rajpurohit and Misra, 2013); His tag removed with Factor-Xa; also called PprA^wt; pETpprA; source: E. coli BL21(DE3) pLysS, purified (Ni-chelating Sepharose, Q-sepharose, Heparin, Superdex-200)
For the molecule B2, the binding result in data set [3] is given as “binds”.

B3: PprA R166A mutant (natural protein, D. radiodurans, UniProt O32504 1-300, looked up)
chain: T1 sequence with R166A
notes: PprA of Deinococcus radiodurans with R166A, made with a site-directed mutagenesis kit
Turning to B3, the binding result in data set [3] was “binds”.

B4: PprA R212A mutant (natural protein, D. radiodurans, UniProt O32504 1-300, looked up)
chain: T1 sequence with R212A
notes: PprA of Deinococcus radiodurans with R212A, made with a site-directed mutagenesis kit; also called oligomer mutant
Consider B4, for which, in data set [3], the binding result was “binds”.
